The nanobody polyreactivity screen of Harvey et al. (2022)

Test: yeast display, Sf9 membrane polyspecificity reagent, FACS + sequencing; frameworks hold sequencing errors
Outline: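 In a synthetic yeast display library (Saccharomyces cerevisiae BJ5465), nanobody expression was induced with galactose for 36–48 hours. FACS gates were set low and high (top ~1%) using anti-HA fluorescence for expression and streptavidin fluorescence for binding of the Sf9 membrane reagent. Each polyreactivity label is drawn from the gate of origin.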

| Sequence | polyreactivity (PSR sort gate) |
| --- | --- |
| QVQLVESGGGLGQAGGSLRLSCAASGSIFGYNVMGWYRQAPGKERELVAGITSGGSTNYADSVKGRFTISRDNAKNTVSLQMNSLKPEDTAVYYCNAEGVFGDGRSGFYWYDYWGEGTQVTVSS | low polyreactivity |
| QVQLVESGGGLGQAGGSLRLSCAASGSIFSFYAMGWYRQAPGKERELVAVINTDGDNTYYADSVKGRFTISRDNAKNTVYLQMNSLKAEDSAVYYCAASVSSYSYTRGGYWGQGTQVTVSS | high polyreactivity |
| QVQLVESGGGLGQAGGSLRLSCAASGSIFYYYAMGWYRQAPGKERELVAGINSGDSTYYADSVKGRFTISRDNAKNTVYLQMNRLKPEDTAVYYCAASADGWYEYWGQGTQVTVSS | low polyreactivity |
| QVQLVESGGGLGQAGGSLRLSCAASGSLITQNALGWYRLAPGKEWELVADISRGSTYSADSVKGRFTISRDNAKNTVYLQLTSLKPEDTALYYSAADDIAHPSFVSTVDVGMDYWGQGPQVTVSS | low polyreactivity |
| QVQLVESGGGLGQAGGSLRSSCAASGSIICYYAMGWYRQAPGKEWELVATITSGGSTSYADSVKGRFTISRDNAKNTVHLQMNSLKPEDTAVYYCAARNVTKSTYNYWGQGTQVTVSS | low polyreactivity |
| QVQLVESGGGLGQARGSLRLSRAASGSPFEYNAMGWYRPAPGKERELVASSTNYADSVKGRFTISRDNAKNTVYLQMNSLKPEVTAVNSCAREPGVNRNHDYWGQGSQVTVSS | low polyreactivity |
| QVQLVESGGGLGQSGGSLRLSCAATGSTYKYNAMGWNRTAPGKERELVPAISRGGRTNYADSVKGRFTISRDNAKNTVYFQMNILKPEDTAVYYCAKDVAGLFHVGSLYYYWGQGTQVNVSS | low polyreactivity |
| QVQLVESGGGLIQAGGSLRLSCAASGSTFANNAMGWYRQAPGKERELVASITRSGSTYYADSVKGRFTISRDNAKNTVYLQMNSLKPEDTAVYYCAADSRRYGVRFDYWGQGTQVTVSS | low polyreactivity |
| QVQLVESGGGLLLAGGSLRLSCAASGYTFVYNAMGWYRHAPGKEREFVAAITWSGTSTRYADSVKGRFTISRDNAKNNVYLQMKSLKPEDTAVYYCAARRRSAQSGSYNHWGQGTQVTVSS | high polyreactivity |
| QVQLVESGGGLLQAGGSHRLSCAASGRIFPAYAMGWYRQAPGKERELVASNRRGGITYADSVKGRFTISRDNAKNTVYLQMNSLKPEDTAVYYCNADYRGWGYHMDYWGQGTQVTVSS | low polyreactivity |
| QVQLVESGGGLLQAGGSLLLSCAASGSNFAYYAMGWYRQAPGKERELVAAITRGAGRTFYADSVKGRFTISRDNAKNTVYLQMNSLKQEDTAVYYCAADVSGSKYDYWGQGTQVTVSS | high polyreactivity |
| QVQLVESGGGLLQAGGSLRISCAASGFPYVMGWYRQAPGKARELVATITSGDSTNYADSVKGRFTISRDNAKNTVYLQMNSLKPEDTAVYYCNARYWGRYYKRVRYDYWGQGTKVTVSS | high polyreactivity |
| QVQLVESGGGLLQAGGSLRLISAASGGIFIRYAMGWYRQAPGKERALVAAITQSGAGTNYADSVKGRFTISRDNAKNTVYLQKYSLKPEDTAVYYCAKEALLPIRRLTHARTRYNFWGQGTQVTVSS | low polyreactivity |
| QVQLVESGGGLLQAGGSLRLSCAASGFIFADYMGWNRQAPGKERELVASISSTGSSTYADSVKGRFTISRDNPKNTVYLQMNSLKPEDTAVSYCAATGVWYSWYEYASEYDYWGLGTQVTVSS | high polyreactivity |
| QVQLVESGGGLLQAGGSLRLSCAASGFIFIQYAMGWYRQAPGKEREFVAAITGRGSSTYYADSVKGRFTISRDNAKNTVYLQMNSLKPEDTAVFYCAADRDSYIFYYYWSYDYWGQGTQVTVSA | high polyreactivity |
| QVQLVESGGGLLQAGGSLRLSCAASGFTFGGNAMGWYRQAPGKERELVAAITSRGGSTYYADSVKGRFTISRDNAKNTFYLQMYSLKPEDTAVYYCAAQFTTRYDWGQGTQVTVSS | high polyreactivity |
| QVQLVESGGGLLQAGGSLRLSCAASGFTFRVNAMGWYRQAPGKERELVASITVSDARTYYADSVKGRFTISRDNAKNTVYLQMNSLKPEDTAVYYCAADYKGAFTTDWSSEYEYWGQGTQVTVSS | low polyreactivity |
| QVQLVESGGGLLQAGGSLRLSCAASGFTFSTNAMGWYRQAPGKERDLVAAITWRGGSTYYADSVKGRFTISRDIAKKTVYVQLNSLKPEDTAVYYCAGRSRGSHVSYYKKFDYWGQGTHVTVSS | low polyreactivity |
| QVQLVESGGGLLQAGGSLRLSCAASGFTVYRYAMGWYRPEPGKERELGAAITWSGGSTYYADSVKGRFTISRDNAKKSVYFQMNSLKPEDTAVYYCAKETAPSRLPYGYWGQGTQVNVSS | low polyreactivity |
| QVQLVESGGGLLQAGGSLRLSCAASGHTLYRYARGWYRQAPGKERELVAAITSRGGSTFYADSVKGRFTISRDTAKNSVYLQMNRLQPEDTAVYYCNTARGTAPAHDYWGQGTQVTVSS | low polyreactivity |
| QVQLVESGGGLLQAGGSLRLSCAASGITFERNGMGWYRQAPGKERELVAAIRSGGSTYYADSVKGRFTISRDNAKNTVYLQMNTLKPEDTGVYYCAAVTQGGYTYLGDYWGQGTQVTVSS | low polyreactivity |
| QVQLVESGGGLLQAGGSLRLSCAASGITFVKYTMGWYRQAPGKERELVAAISRSDGRTYYADSVKGRFTISRDNAKNTVYLQMNSLQPEDTEVYYCNAVYGVIGKGYNYWGQGTQVTVSS | high polyreactivity |

| Sequence | polyreactivity (PSR sort gate) |
| --- | --- |
| QVQLVESGGGLLQAGGSLRLSCAASGITFYYNTMGWYRQAPGKERELVASISGGCSTYYADSVKGRFTISRDNAKNTVFLQMKSLIPEDTAVYYCNAQGSLFRGWFDYDYWGQGTQVTVSS | low polyreactivity |
| QVQLVESGGGLLQAGGSLRLSCAASGRICRYYAMGGYRQAPGKERELVAGIRTSGGRTYADSVKGRFTISRDYAKNTVYLQMNSLKPEDTAVYYCAAGRRTLSMYYWGQGTQVTVSS | high polyreactivity |
| QVQLVESGGGLLQAGGSLRLSCAASGRIFNINAMGWYRQAPGKERELVAAISSGDSTYYADSVKGRFTISRDNAKNTVYLQMNSLKPEDSAVDYCNKDLYIWGHGTQVTVSS | low polyreactivity |
| QVQLVESGGGLLQAGGSLRLSCAASGRIFYGYTMVRYRQAPGKERELVASITIRGSRTYYADSVKGRFTISRDNAKNTVYLQMISQKPEDTAVSYCAADFVPARTVHRYDYWGQGTQVTVSS | low polyreactivity |
| QVQLVESGGGLLQAGGSLRLSCAASGRIKDNGMGWYIKAPGKERELVAAITLSAGRTYYADSVKGRFTISRDNAKNTVYLQMNSLKPEDTAVYYCAAQAERYGYEYWGQGTQVTVSS | low polyreactivity |
| QVQLVESGGGLLQAGGSLRLSCAASGRILFSYAMGWYRQAPGKERELVATISSGGRTNYADSVKGRFTISRDNAKNTVYLQMNSLKPEDTAVYYCNTEYLVWYAYDYGGQGTQVTVSS | low polyreactivity |
| QVQLVESGGGLLQAGGSLRLSCAASGRIYWNDMAWYRQAPGKERELVAAISWGGDRTYYADSVKGRFTISRDNAKNTVYLQMNSLKPEDTAVYYCNAPGYLTYDHSYDYWGQGTQVTVSS | low polyreactivity |
| QVQLVESGGGLLQAGGSLRLSCAASGRTFSYYAMGWYRQAPGKERELVAAISWRGGSTYYADSVKGRFTISRDNAKNTVYLQMNSLKPEDTAVYYCAALPRYALGEDYWGQGSQVTVSS | high polyreactivity |
| QVQLVESGGGLLQAGGSLRLSCAASGRTFWWNAMGWYRQAPGKERELVAVISYSGGSTYYADSVKGRFTISRDNAKNTVYLQMNSLKPEDTAVYYCAADLYSHTGYYWGQGTQVTVSS | high polyreactivity |
| QVQLVESGGGLLQAGGSLRLSCAASGSIFPQYAMGWYRPAPGKERELVAAITWSGSRTRYADSVKGRFTISRDNAKNTVYLQMNSLKPEDTAVYYCNAYWGRSGYAGGYWGQGTQVTVSS | high polyreactivity |
| QVQLVESGGGLLQAGGSLRLSCAASGSIFQYKAMGWYRQAPGKERELVAAINGGGSTYYADSVKGRFTISRDNEKNTVYLQMNSLKPEYTAVYYCAADGGAYYYRGPGKFGIEDSWGQGTQVTVSS | low polyreactivity |
| QVQLVESGGGLLQAGGSLRLSCAASGSIFYINAKGWYRQAPGKERELVAAITSDGSTYYADSVKGRFTISRDYANYTVYLQLNSLKPEYSAVYYCAADLTSDQYLYYWYWFSSWGQGTQGTVSS | low polyreactivity |
| QVQLVESGGGLLQAGGSLRLSCAASGSTFDSYAMGWYRQAPGKERELVAAITNGGSTYYADSVKGRFTISRDNAKNTVYLQMNSLKPEDTAVYYCATDDYLLDYLYDYWGQGTQVTVSS | low polyreactivity |
| QVQLVESGGGLLQAGGSLRLSCAASGSTFGHYAMGWYRQAPGKERELVAAITWSGGSTYYADSVKGRFTISGDNAKNTVYLQMKSLKPEDTAVYDCAARFGGGAARHGYWGQGTQVTVSS | high polyreactivity |
| QVQLVESGGGLLQAGGSLRLSCAASGSTLRRYAMGWDRQAPGKERELVAAISGSGDSTYYADSVKGRFTISRDNAKNTVYLQMNSLKPEDTAVYYCNAVYAFNGYDYWGQGTQVTVSS | low polyreactivity |
| QVQLVESGGGLLQAGGSLRLSCAASGYTSSRYAMGWYRQAPGKESELLAAISGTGGSTNYADSVKGRFTISRDNAKNTVYLQMNRLKPEDSAVYYCATRSFGAGYVGVRYYYWGQATQVTVSS | high polyreactivity |
| QVQLVESGGGLLQAGGSLRLSCAASVSIFSIYAMGWYRQAPGKERELVAAITLGGGSTYYADSVKGRFTISRDNAKNTVYLQMNCLTPEDTAVYYCAASSVYGYSYWGQGTQVTVSS | high polyreactivity |
| QVQLVESGGGLLQAGGSLRLSCAATGITYDYYDMGWYRQAPGKERELVAAIRWSGTSKYYADSVKGRFTISRDNANNTVYIQMNSLKTEDSAVYYCAALAVGNDYRRYGYWGQGTQVTVSS | high polyreactivity |
| QVQLVESGGGLLQAGGSLRLSCADRRTLSFYAKGCSIQAPGKERELVAAISRSGGSTYYADSEKGRFTISRDNAKNTGKLQMNRLKPEDTAVYYFAARSSGGYDYWGQGTQVTVSS | high polyreactivity |
| QVQLVESGGGLLQAGGSLRLSCADSGSTFSRYSMGWYRQAPGKEREFVAAISRSGASTYYADSVKGRFTISRDNEMNTVNLQMNSLKPEDTAVYYCNTRRWRFVKYGYWGQGTQVTVSS | high polyreactivity |
| QVQLVESGGGLLQAGGSLRLSCASSGLIFLGYTMGRYIQAPGKERELVAAISRRGGRTYYADSVKGLFTISRDNAKNTVYLLMNSLKPEDTAVYYCNADITSSGPKSDYWGQGTQVTVSS | high polyreactivity |
